Earlier results in patent US20120225099A1, “COMPOSITIONS FOR AND METHODS OF […] CYCLASE C” (Thomas Jefferson University, priority 2009, published 2012).
Ends that are not written are not given here.

Target: guanylate cyclase (ST receptors) (Homo sapiens, UniProt P25092)
Conditions: relative to native ST; about

Sequence of guanylate cyclase (ST receptors) (P25092 24-1073): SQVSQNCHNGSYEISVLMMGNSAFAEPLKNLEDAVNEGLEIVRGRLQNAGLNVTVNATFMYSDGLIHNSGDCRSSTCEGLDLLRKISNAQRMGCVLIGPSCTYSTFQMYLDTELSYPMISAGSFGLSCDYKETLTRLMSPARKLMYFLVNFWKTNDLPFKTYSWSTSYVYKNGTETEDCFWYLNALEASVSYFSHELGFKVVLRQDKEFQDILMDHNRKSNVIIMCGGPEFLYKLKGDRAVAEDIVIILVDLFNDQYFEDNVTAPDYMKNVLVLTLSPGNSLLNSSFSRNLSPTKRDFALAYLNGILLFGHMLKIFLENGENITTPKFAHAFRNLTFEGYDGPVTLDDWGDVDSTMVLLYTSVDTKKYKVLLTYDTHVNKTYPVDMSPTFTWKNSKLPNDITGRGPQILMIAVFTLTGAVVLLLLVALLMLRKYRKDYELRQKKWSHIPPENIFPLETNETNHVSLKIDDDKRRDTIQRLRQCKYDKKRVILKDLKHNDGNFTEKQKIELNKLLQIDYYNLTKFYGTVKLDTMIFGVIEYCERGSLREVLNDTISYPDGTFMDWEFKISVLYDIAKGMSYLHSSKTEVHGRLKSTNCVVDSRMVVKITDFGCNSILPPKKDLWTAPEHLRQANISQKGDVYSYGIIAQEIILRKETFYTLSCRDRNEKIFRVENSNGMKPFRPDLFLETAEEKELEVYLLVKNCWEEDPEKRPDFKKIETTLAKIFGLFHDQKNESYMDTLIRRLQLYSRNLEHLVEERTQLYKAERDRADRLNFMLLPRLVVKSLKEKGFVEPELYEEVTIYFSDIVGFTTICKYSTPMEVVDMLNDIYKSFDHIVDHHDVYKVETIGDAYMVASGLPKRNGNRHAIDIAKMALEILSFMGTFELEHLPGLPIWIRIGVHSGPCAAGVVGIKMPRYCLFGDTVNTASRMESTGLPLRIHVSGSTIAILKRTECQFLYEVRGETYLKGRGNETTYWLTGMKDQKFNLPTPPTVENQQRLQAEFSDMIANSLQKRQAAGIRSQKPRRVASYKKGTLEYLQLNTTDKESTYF

## PNTCEICAYAACTGC (cysteine pairing not given here) [Guanylin, 15 amino acid peptide identified in mammalian intestine; native GCC ligand]
  activates guanylate cyclase at a level less than native ST: 10- to 100 fold
